Molecular target: Type I collagen
Test: adhesion of whole bacteria to a coated plate (crystal violet staining); type I collagen (0.002-2 mg in 0.25 M acetic acid) coated on 96-well plates overnight at 4°C, blocked with BSA; overnight cultures of S. mutans (1 x 10^8-1 x 10^10 CFU) 3 h at 37°C; fixed, stained with crystal violet, OD595; percent of parental strain SN74

Cnm of Streptococcus mutans strain TW871, expressed in complemented strain SN74CNDcomp (natural protein)
percent of the collagen binding of parental strain SN74: 60%
